The target of the assay is T1, cyan fluorescent protein (CFP)-SR-A (class A scavenger receptor) (human, UniProt P21757 1-451).
T1 sequence (looked up): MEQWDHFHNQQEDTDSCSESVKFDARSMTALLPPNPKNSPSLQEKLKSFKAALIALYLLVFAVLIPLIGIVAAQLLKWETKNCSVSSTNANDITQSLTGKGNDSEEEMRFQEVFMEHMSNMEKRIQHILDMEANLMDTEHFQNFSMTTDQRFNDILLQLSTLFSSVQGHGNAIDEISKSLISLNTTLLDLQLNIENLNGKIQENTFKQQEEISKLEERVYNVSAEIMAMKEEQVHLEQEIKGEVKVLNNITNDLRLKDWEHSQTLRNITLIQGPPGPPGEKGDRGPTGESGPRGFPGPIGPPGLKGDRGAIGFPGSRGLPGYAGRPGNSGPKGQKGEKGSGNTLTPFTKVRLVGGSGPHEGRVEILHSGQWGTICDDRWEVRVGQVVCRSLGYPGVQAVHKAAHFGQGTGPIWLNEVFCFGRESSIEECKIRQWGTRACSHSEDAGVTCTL
Description: FRET or BRET.

B1: yellow fluorescent protein (YFP)-GRP78 (78 kDa glucose-regulated protein) (natural protein)
chain: not shown
For the molecule B1, the “FR (mean FRET ratio)” value is 2.17.

(Values after paper PMC4102840 (Journal of Biomedical Research, 2014).)
